Measurements taken from the supplement of paper PMC12042874.
± gives the uncertainty stated by the source.

assay: amyloid nucleation score (Sup35N fusion, yeast selection) (log enrichment); library NNK2; higher = more nucleation; inactive = no reads after selection
Outline: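 The nucleation score is a DiMSum log enrichment of output over input reads, centred on the mode score of non-aggregating sequences. Sequences under 100 input reads were excluded, and reads came from Illumina sequencing of plasmid inserts. Psi-negative yeast expressing Sup35N fused to peptides of 20 random codons were induced with 100 μM copper sulfate for 24 hours and grown 7 days at 30°C on medium lacking adenine and uracil. Random libraries had three technical output replicates.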

Row | Substance | amyloid nucleation score
1 | RGVVGLDSIRWPSFGAVMKF | -0.757 ± 0.48
2 | YGVYVRCYLDGSLWWNFTAW | inactive
3 | VRGPIGHLCICSAMSLGWIH | 2.67 ± 0.11
4 | KTTHDCGSAHVGL | -0.504 ± 0.63
5 | LKNNNQETGIEFYIFREHRD | 4.22 ± 0.047
6 | YNLSVFQVITAPHEGDNRAW | 4.55 ± 0.049
7 | ITYLWYISVLYREMPLCCAS | 0.237 ± 0.25
8 | SAGHSKGLQDVAPPRIFMVS | inactive
9 | WDNWDPVAAP | inactive
10 | VLINEHYGYRFFCFNCADGK | 8.228 ± 0.036
11 | SCRDNIRGQRLGHHAGLWSR | 0.479 ± 0.2
12 | YPKSLV | -0.698 ± 1.1
13 | CGVPNYQLVVEWMMTNRVGN | -0.888 ± 0.78
14 | GAGWFNDFVHLPWHLEVSNY | -1.17 ± 1.1
15 | TRMHESIWV | 1.73 ± 0.077
16 | CWLAMN | -0.166 ± 0.8
17 | FRYIKPTCSFICLVRFVGDF | -0.833 ± 1
18 | NVHCILMSGVMGIQYRWKVL | 0.395 ± 0.51
19 | WHEWCEGCGRNCSWEVGQDR | 0.435 ± 0.23
20 | AKFTL | -0.253 ± 0.3
21 | VVGTPCL | 0.542 ± 0.41
22 | CQIVGRHIGVRMCDDRVYRA | 0.762 ± 0.6
23 | VWLCHSVNHIAISNE | 1.12 ± 0.45
24 | MLVEMYLFVNLCLYMRMSFR | 0.018 ± 0.5
25 | HSTVSLQSGRMNVVASGVIH | 1.62 ± 0.11

Row | Substance | amyloid nucleation score
26 | GTMLMGVE | 0.449 ± 0.8
27 | TAHGAQWVPDWWEPVTSAYW | 1.21 ± 0.21
28 | PRKPRNVDSL | 0.134 ± 0.18
29 | CSLPCVTNWCRRRNMVSQPV | -1.11 ± 1.1
30 | KRRSQIRMTNDNLASVNMKN | 1.43 ± 0.096
31 | SHTVGFSRAVRVCRGTDHT | 0.72 ± 0.38
32 | TEIRLNVSLRSRRGPCPTRL | 6.06 ± 0.06
33 | HMQPYIRESISVG | inactive
34 | GSMITCFVSDTLYKTVMVKL | 0.373 ± 0.54
35 | CDSAAFRPYLFSAENLSLYK | 0.53 ± 0.66
36 | FENDFMRVSCDGSRGILCVL | 2.48 ± 0.11
37 | WRYITCHS | 1.59 ± 0.55
38 | LALIMTFLQPGERLRGSVAI | inactive
39 | SMNFRTTSSHSDILYPALC | 0.24 ± 0.48
40 | QLGIGFFGRKWDGHL | 2.79 ± 0.16
41 | VQLGVHV | 0.14 ± 0.4
42 | THKNLEC | 0.681 ± 0.17
43 | TRSHLFGYSVMGSSLIDSLY | -1.24 ± 0.79
44 | DCLNYFTTLIKLVSLVCWNG | -0.571 ± 0.79
45 | IGIDLVRSGSVIFPSPTWKV | 4.411 ± 0.037
46 | SRFCSIIITMNVNHLPV | 5.79 ± 0.068
47 | TDLYCFSSI | -1.29 ± 1
48 | VTYWFLLHNIRRLPRYIWLR | -0.664 ± 0.48
49 | LLQKFVMGGEVRRESGGVRC | 0.726 ± 0.25
50 | VFSYRLLSNPLSVPW | 4.83 ± 0.089

Row | Substance | amyloid nucleation score
51 | VTGNKEVMKIRCWVAHEESD | 1.32 ± 0.37
52 | WNAALKYKAHVGIDVSRCVP | 0.535 ± 0.33
53 | NSNFRLTCTFSSMHYKLARG | 2.9 ± 0.21
54 | CRRSNFNYQGVLGYWHRFAG | -0.755 ± 1.1
55 | VTDYYYLCKFKSRVP | -0.799 ± 0.78
56 | WLLVDYAASCRGKWCHEMHG | 0.284 ± 0.19
57 | IRKALNASVLKLT | 1.1 ± 0.36
58 | GSEMIFYIAVVALCLCIPEG | 1.21 ± 0.22
59 | QLGLLFFGTVLM | 1.87 ± 0.14
60 | FKGHHGHKVWETH | -0.145 ± 1.1
61 | LRKPSTIFEHDAKNSRV | -0.67 ± 0.79
62 | SKCIASFNLRSYCMSRLASS | -1.15 ± 1.1
63 | NSNGEFIKGACHMVRLFGLQ | 0.098 ± 1
64 | SDLVLKSLFDVVARRL | -0.072 ± 0.35
65 | IVSVFQYRTVNIFVGFYYIR | inactive
66 | CRTRL | 0.505 ± 0.39
67 | KSGLTQLLQILSSCLELGIW | 0.38 ± 0.51
68 | SPFIRHLNGSICRDNYFYVG | 3.03 ± 0.063
69 | VTAAIIVFCNGVLVRWTFIM | -0.99 ± 1
70 | ALKSCVLNDKVRRFLAWRLG | -0.183 ± 0.54
71 | VYFSSSIADKFYNLISVRFI | 0.833 ± 0.8
72 | LFVIWNTCVNYFLDVLSGHN | 3.86 ± 0.12
73 | NFAQWW | 0.443 ± 0.8
74 | MCFAHVRNFSEW | 1.47 ± 0.15
75 | SGFFAVGILITTLPLRGNER | 0.22 ± 0.45

Row | Substance | amyloid nucleation score
76 | VDRNVTSRSQVTSSFSWDIV | inactive
77 | STCSTGHRSLRTKKRNSILS | 4.34 ± 0.096
78 | ISDFQACIRGDRWDEKGYIS | inactive
79 | SGCFVWPELVGESSIIMCPS | inactive
80 | SWATLRVCNIFCMITCSYFM | 1.51 ± 0.15
81 | GDYHSYGVVRSYFCATPSSG | 0.64 ± 0.44
82 | KFIPLINIRTQL | inactive
83 | SLNRTTSSLVRW | 6.029 ± 0.037
84 | HIGCIRWFSCGGSPLSMNRL | 1.24 ± 0.2
85 | SLQFVGYYFPFNRVCARSGA | -0.913 ± 0.45
86 | LRTSSSYSFLEYIRS | -1.08 ± 1
87 | MNPYLVGPFERVV | 0.061 ± 0.33
88 | VTFFTAFLTFVYCCMMLMYM | 7.32 ± 0.078
89 | YVRYFSIQTGHV | inactive
90 | GDSFLWTHS | -0.994 ± 0.62
91 | MGGNLCVPRTLYSAIWLLSR | -1.23 ± 0.44
92 | SVKLHSGGSWLRTWDWPRVC | 1.55 ± 0.21
93 | CVGIFDNDICVEFMMALRLD | -1.05 ± 0.64
94 | FCLIHVVM | 1.32 ± 0.27
95 | FFDYIGRYYNLKH | inactive
96 | ISHISDL | 4.61 ± 0.072
97 | LTTSFANAWHFNFLGRPLH | 2.18 ± 0.18
98 | IYPSVRYPMYAITKRYSRVG | -0.769 ± 0.28
99 | EWIIERRSL | -0.279 ± 0.63
100 | SQKLSIQYQLRYFILLVKPR | -0.704 ± 0.5

Row | Substance | amyloid nucleation score
101 | AAVNWNRFPKTVTA | -0.195 ± 0.33
102 | FHNLASFVRKSRVYQHKRNA | -0.231 ± 0.63
103 | VFYLSFIFLLWLSGKYLGHW | 1.25 ± 0.1
104 | YSGWFFCNFISLWV | 6.529 ± 0.057
105 | IFIRLFVLANYCINLFSS | 3.28 ± 0.082
106 | LARGCFAFN | -0.363 ± 1
107 | YFFSISWTCYFR | 3.27 ± 0.044
108 | FSNSHIVMVENLTDIVSVTT | inactive
109 | DKCDMTSTIVSLLVSTPKWS | -0.142 ± 0.34
110 | RWRIARMITPNLPELLSLYR | 2.93 ± 0.059
111 | WEASSFKVSGLSGSHHPSKG | 2.3 ± 0.13
112 | MLSENADTRCLRMFVSDCQR | 1.26 ± 0.16
113 | ATIWCCRVKGQVGSFNL | 0.868 ± 0.14
114 | RSTLPGRRFFIGNILYN | -0.578 ± 0.78
115 | FPTFFCLAIIWKYMFLLIKF | -0.238 ± 1.1
116 | HGNWGLLYLTDALVKMIQDV | -0.311 ± 0.3
117 | GMSYGESWIGTNLAGRVRAL | 1.29 ± 0.31
118 | LCHYGCMVRESNLEYCPSME | 0.381 ± 0.48
119 | RSCFPMIIALVRFDVFGDCY | -0.339 ± 0.31
120 | LTATFTNMGCTTGSKCLM | inactive
121 | NMLYHYIDRSCRGAMDHHGR | inactive
122 | IFYHHLSWTEFRCGRTFLSV | 0.196 ± 0.42
123 | VDYLRYLIWFNRS | 0.058 ± 0.79
124 | TIIRMKLS | 1.39 ± 0.39
125 | PSMIYFYRGSSLFASWGFLI | inactive

Row | Substance | amyloid nucleation score
126 | FLLPGCSLIFFYCSGCSMV | 5.014 ± 0.031
127 | LAALR | 0.159 ± 0.3
128 | RTCTFVCRGM | 2.86 ± 0.1
129 | TFATYTISNCLYVPRPVT | 0.879 ± 0.19
130 | VKRYGINGGFNYSSYCTAGI | inactive
131 | VQFRAHSCLLA | 0.841 ± 0.74
132 | NPTYYRARGE | 2.96 ± 0.11
133 | YNSNFPTLYWG | inactive
134 | SYVNKWAECLSCTTEYTMSK | inactive
135 | SALNYSFFLL | -0.27 ± 1.1
136 | RRGTQVFCCDYWSARGSWT | 8.749 ± 0.062
137 | RYRELVGVKCMV | 0.978 ± 0.74
138 | GNLVC | 0.821 ± 0.19
139 | VYWCLITFNHEDAHSYCFL | 2.22 ± 0.26
140 | TCYTTSVRNSTS | 0.082 ± 0.36
141 | CAIAWRMPLDRPPLKE | -0.627 ± 0.76
142 | VAKLLMAGVVKPCRGGRCVG | 0.936 ± 0.16
143 | YGFCAFTHSC | -0.554 ± 1
144 | DRFRDVIICFFKCTCNRITQ | 4.949 ± 0.034
145 | LIIVMTLPYFGTSAM | 0.362 ± 0.3
146 | TVRASCFRVSVRKEKKIVVA | 0.233 ± 0.77
147 | RIGLMNL | 3.38 ± 0.11
148 | RLRTKCYFNCCNGHYLEFGG | 9.489 ± 0.067
149 | SLTAVWDDLAMLKLWAEMEM | 0.053 ± 1.1
150 | GGGAAPNPTDYKSILLLC | 0.17 ± 0.34

Row | Substance | amyloid nucleation score
151 | MLRLFQYFLGTNFWGHQGFS | -0.724 ± 1.1
152 | MSLILRSPLKTWLPLAHTQG | 0.187 ± 0.42
153 | NIEVWMFYSLMNMNEA | -0.509 ± 1.1
154 | WYMQGTLTAMGRGQTQYLSC | 0.405 ± 0.64
155 | MTQPEGY | 0.325 ± 0.56
156 | KMQMLWTGVCRVLFVAPQPN | 0.319 ± 0.36
157 | VFVIWCFVIICVSLLSVVDR | -0.795 ± 0.49
158 | IRVRGFPSSHRSV | -0.901 ± 0.78
159 | VDRDSPKYVHA | 0.917 ± 0.32
160 | YALWFVIWEVGRGFLVVISF | inactive
161 | PAASLRLRELMRYDDWRGVA | 0.03 ± 0.38
162 | KWYKVVNMALALISMWSQAW | -0.701 ± 0.63
163 | FGYMCEAPHRVDFRLFELLQ | inactive
164 | KRWQVLFDRSRKYCRVGKT | 0.161 ± 0.56
165 | VLTFRRMHD | 0.398 ± 0.65
166 | CAVDLFGVAIRALMFRSWGC | inactive
167 | VLKKA | 0.185 ± 0.8
168 | CLNCI | -0.497 ± 1
169 | ILRCICRNILSSSRVRCSYH | inactive
170 | VGRVNIVSDLMVPNSHYICS | -0.056 ± 0.76
171 | PSWSAKTCACWNKAYPIVEI | 0.633 ± 0.47
